Where “and” joins values, the source holds several entries; their conditions need not be identical. Equal entries are not always repeated.
Molecular target: IL-15 receptor complex on CTLL-2 cells
Assay: cell-based or functional assay

Substance: IL-15-Q156S (from UniProt P40933 49-162) (ligand)
- CTLL Inhibition Assay units/ml (Antagonist Activity): 1.5e+06 units/ml

Substance: IL-15-Q156C (from UniProt P40933 49-162) (ligand)
- CTLL Inhibition Assay units/ml (Antagonist Activity): 3e+06 units/ml

Substance: IL-15 (from UniProt P40933 49-162) (ligand)
- CTLL Inhibition Assay units/ml (Antagonist Activity): 279 units/ml

Substance: IL-15-D56C-Q156S (from UniProt P40933 49-162) (ligand)
- CTLL Inhibition Assay units/ml (Antagonist Activity): 700000 units/ml

Substance: IL-15-D56C-Q156C (from UniProt P40933 49-162) (ligand)
- CTLL Inhibition Assay units/ml (Antagonist Activity): 200000 units/ml

Substance: IL-15-D56S (from UniProt P40933 49-162) (ligand)
- CTLL Inhibition Assay units/ml (Antagonist Activity): 220000 units/ml

Substance: PEG-IL-15-D56C (from UniProt P40933 49-162) (ligand)
- CTLL Inhibition Assay units/ml (Antagonist Activity): 7.96e+06 units/ml
- concentration of antagonist required to neutralize 40 pg/ml IL-15 in CTLL inhibition assay: 7.7 ng/mL

Substance: IL-15-D56C (from UniProt P40933 49-162) (ligand)
- CTLL Inhibition Assay units/ml (Antagonist Activity): 2e+06 units/ml and 5e+06 units/ml

Substance: IL-15-D56S-Q156S (from UniProt P40933 49-162) (ligand)
- CTLL Inhibition Assay units/ml (Antagonist Activity): 720000 units/ml

From US20040253587A1
